The series can be described thus: label from the status in PepcDB records.
For “MGETAGREHGTVTRSAEYIGSFPVDDSCLDDQIQQLHTQLKSLKNCKSKRTVSLRFSVKGVKVYDEDETTLLMAHAMCRVSLSTARPSDAQFAFASHNPGNSDAQLYCHLFRARHARAAQFLNLLLCRCFQLYFLEKHPEEAQEECSGKKPSRAPSLLNQGFPLSVSALVSFRRAPTQGLLPGAKLFSQQSTEQVSSPEEGPTSSPTIVRKMAIRTKELRSGAYRSFTFTPLKQRHLQDKLSAPQGGMSVHRTLSRLKEFLRKGTSHCKGMHVSSSQFGRNRRSTGSSCVVLGWRV”, the protein production entry is “failed”.

On to “MGEVKDLGMADHGGFDLKIGARVVLEDVKLGDSIAVNGTCLTVTEFNAEEFTVGLAPETLRKTSLEELKKGSPVNLERALQPVSRMGGHVVQGHVDGTGVIESMEVEGDSLWVKVKADKGLLKYIVPKGFVAVDGTSLTVVDVFDEESCFNFMMIAYTQQNVVIPTKKIGQKVNLEVDIMGKYVERLLTSGGFSKGN”, for which the protein production entry is reported as “failed”.

In the case of “MGFHDYIEETKNIFNRLYPDNKITDIDYEGPTIVVYTKDPELFAKRDDLVRQIAQEIRRRIAIRSDPSILLPEDQARESIEKIIPKEAGLEDIYFEPDTGEVIIELDEPSIVTARGTDYVQEIKSRTQWSPRIVRAPPMYSRTVKEVREFMREVKQERREFLHNLGVKLSGPPMVGETWVRLTALGGHSEVGRSATLVSTKNSKVLIDCGMMNVGPDADPWDAAPYLYVPEVQPLSTIDAVILTHAHLDHSGLLPLLFKYGYDGPVYMTPPTRDLAALLQNDYIKVARMEGGKVPYESKYIREELKHTITLRYGETTDITRDMRLTFYNAGHILGSASGHLHIGDGLYNVVLSGDVKFEKTWLFNPANNKFPRAETFMTESTYGGRDDYSFTREEATQTLIDVINRTHDRGGSVLIPVFAVGRSQEVMIVLEDAMRNGRIPQMDVYLDGMIMEAPAIHAAYPEYLNKELREAIMVKKENPFLSPIFKKVETRDRGRK”, the protein production entry is listed as “failed”.

Turning to “MGFHLRGAIDIPEWLDNVSIISRDGNKELVSILKSQLEGYKIDVNSDPSLAKYWLIINSSSLQQQIVSIGASTNPRQYQLILTIEFMLQTPKGQIIKTPRKVNVSRQLTVNNDRILGSNEEQALLVSEMRRDAAIQIINRLNRPLEHHHHHH”, the protein production entry is “not failed”.

As for “MGFLNKLLSSEGPRKPKVKFDLQKCKVLLKGGENRIRLQKSKLAVCNLLASPVPALKNLFNKNSVKLQQREVAVLLEGGKDELARIRAEQMVRDELLIESYEIVEVLCETLLTRHNLLALNFHATKENPYPPLPPEIAEAVCSIAFASCRLDASELQTLTEMLASRFGPELIDSACAGQPSQRVWGVNSLVNPRLYSKLLYSVPDGNVVLQKLQDIADMFQLEWKAPAEFEELKDHSVLDSTASTPVFSGNAQRARYLPEASSFSDEKIGDDVFCTNESEQTEEGRDPSDDLSARLEALKRNR”, the protein production entry is listed as “failed”.

On to “MGFMIEHWDFSTPMATQETTTAEHIQPNHWYHCERLHPDIRSWLEDNHVPRATVDHLLADESRPSFHPLDDDNFMLILRGINMNENASPEDMLSIRILYFQGALISTRKIPSRAIMEIRQALAEHKGPKSLASLLNQIIEGLNGKIDLYLDTIEETLNEFDVNDESTYNHIAAQKALISIKRFIRPQQYAIRDLIESESELVTSRPHQYRFAHNNITRINETIEFYLGEVALFQDEIKHNRDEKTNKNSYLFTLVATIFLPTSFLTGLL”, for which the protein production result is “not failed”.

Regarding “MGFSKVPLIWLCHPKIIAIDSKHVEVRIPLRRRTKNHLNSMYFGALAVGADVAGGFLAMSKAQEKGEAISLAFKGVKAEFLKRPEADVHFVCNDGHVIDEMLDHTIATGERVNRDVKIIALCPSLHGQEPMAEFALTLSLEHHHHHH”, the protein production entry was “failed”.

In the case of “MGFTQNSVYFLNVSEALATPQDKLHTVRLFGTVAADGLTMLDGAPGVRFRLEDKDNTSKTVWVLYKGAVPDTFKPGVEVIIEGGLAPGEDTFKARTLMTKCPLEHHHHHH”, the protein production result is given as “not failed”.

As for “MGFYLGITALKSIGNNKNNNIDNENNHQAKILTFPVSFTCRTFLPARGDILQGTVKKVLWNGAFIRSGPLRYAYLSLLKMPHYHYVHSPLSEDEKPHFQKDDLSKIAVGVVVRFQVLAVRFKERPHKRRNDYYVLATLEGNGSFGP”, the protein production result is given as “not failed”.

As to “MGFYQGPDNRKITGGLKGKHRDKRKYEIGNPPTFTTLSAEDIRIKDRTLGGNFKVRLKYTTTANVLDPATNTAKKVKILEILETPANKELARRGIIIRGAKIRTEAGLAVVTSRPGQDGVINAVLLKNESQRSLEHHHHHH”, the protein production entry is listed as “failed”.

For “MGGGGHGGGITYKGVTVHTPKTWHTVTGKGLCAVMWFWILYRAKQDGPVVMGWRHPWDGHGDHGHGDHH”, the protein production result is recorded as “failed”.

As to “MGGIIIIDVHCHLDFKDFNRNREEVIERARSKLRAVIDSGVGLGGNRRALELASLNPGFICPTMGFHPVDASKARQDLIGEVVSQIESNIDLIVAVGETGMDFHHTRDEEGRRRQEETFRVFVELAAEHEMPLVVHARDAEERALETVLEYRVPEVIFHCYGGSIETARRILDEGYYISISTLVAFSEHHMELVRAIPLEGMLTETDSPYLSPFRGKRNEPAFVEEAVRAIARIKDMDLEDVDSITTANAERVFGL”, the protein production result is on record as “failed”.

“MGGKYSRGEERRPLGFPGFSALCCCQKTNREETPLGFCDIKARRSNLSFGREDPAYLDMAYFPDNDLHMAACAGDLPFVRLYFTLGKYEVNHRDRENRNAMHFACFYGHLELVIYLWRRGCEINVCDNHNITPLMKAVQSWEDKIVCFLLEHHANLHIKDSMGNTALHYAVYSGNLATAARLLQYGADIEERTKDNLTPLLLALRENRLKMAQFLVRMEASVHAVDSQRRNSLMYAVRCDSPVMVNLILQQGVDINLKDLFGWTALRYAIEGDRDVRTMLLELRKRNRAFQSSENSSIRLINKADAEVTSPTANEKVIEMQDPFTTNEASVEKTQTRRPAESELEVFSLEEEISYKETINNLQQNPGQRSAKTDAATENRSP”: the protein production entry is “failed”.

With “MGGSFYPCLSVSKRAIGKNTAYSTLYYLQYTIKKASFSNVIYTSENNNIFRVSLLTFSFFYFTRTVKNSHMPTTTLEQQRTRQGVLFALGAYTIWGIAPIYFKTISEVSPLEILSHRVIWSFFFLAALLSFSKGWATVINTLKDKKKMTYLITTSVLIGANWLIFIWAVNAGHMLDASLGYYINPLLNVVLGMIFLGERLRRLQWVAVLFASAGVLIQLITFGSIPVVAIALACSFGFYGLLRKKVAMDAQTGLFIETLVMLPLTLIYLLFIADSATSNFSENTLNLNLLLIAAGIITTVPLLCFTGAATRLKLSTLGFFQYIGPSLMFLLAVGLYGEEFSADKAITFGFIWGALVIFTTDAFMARNKKNK”, the protein production result is “failed”.

Turning to “MGHAALDAVLPDGGWPRRALTELLLPAHGIGEIALLLPTLARMTGAGSRVVLVAPPYVPYAPAWQAGGVALQQLEIVQAEPRDALWAFEQCLRSGACAAVLGWPQTGDARALRRLQVAADSGNCCAFALRDRRHAVNASPLEHHHHHH”, the protein production entry is “failed”.

Take “MGHETKAQLKDYVEVKIMKIKTTVAALSVLSVLSFGAFAADSIDAAQAQNREAIGTVSVSGVASSPMDIREMLNKKAEEKGATAYQITEARSGDTWHATAELYKLEHHHHHH”: the protein production entry is given as “not failed”.

“MGHHHHHHHHHHSSGHIDDDDKHMEVSVLIPAAGNGLRLGRGPKAFLQVGGRTLLEWTLAAFRDAAEVLVALPPGAEPPKGLGAVFLEGGATRQASVARLLEAASLPLVLVHDVARPFVSRGLVARVLEAAQRSGAAVPVLPVPDTLMAPEGEAYGRVVPREAFRLVQTPQGFFTALLREAHAYARRKGLEASDDAQLVQALGYPVALVEGEATAFKITHPQDLVLAEALARVWSA”: the protein production entry is on record as “not failed”.

On to “MGHHHHHHSHAESHLQSSLITASQFFEIWLHFDADGSGYLEGKELQNLIQELQQARKKAGLELSPEMKTFVDQYGQRDDGKIGIVELAHVLPTEENFLLLFRCQQLKSCEEFMKTWRKYDTDHSGFIETEELKNFLKDLLEKANKTVDDTKLAEYTDLMLKLFDSNNDGKLELTEMARLLPVQENFLLKFQGIKMCGKEFNKAFELYDQDGNGYIDENELDALLKDLCEKNKQDLDINNITTYKKNIMALSDGGKLYRTDLALILCAGDN”, for which the protein production result is listed as “not failed”.

“MGHHHHHHSHGQTFAGVIRGVQSYGFFVQIEALQVEGLVHVSSPKDDWYEYRSRQQRLIGRKNRRQFGLGDRVEVEIRNVDYYRQQIDLGVLPLPEAQSETSDREP”: the protein production result is reported as “not failed”.

For “MGHHHHHHSHKPIKVEKTVTINKPADELYRYWHNFENLPTFMKHLKSVKVYNEKRSHWIANAPLGNSVEWDADILEDRENEFISWASAEGADVENSGFVRFQKAPGDVPGQAASRLRGTEVKVVLEYNLPGGALAAVVAKLFGEEPEQQIGDELRRFKM”, the protein production entry is recorded as “not failed”.

Turning to “MGHHHHHHSHLSPDRRASLLTSLMLVKRDYRYDRVLFWGRILGLVADYYIAQGLSEDQLAPRKTLYSLNCTEWSLLPPATEEMVAQSSVVKGRFMGDPSYEYEHTELQKVNEGEKVFEEEIVVQIKEETRLVSVIDQIDKAVAIIPRGALFKTPFGPTHVNRTFEGLSLSEAKKLSSYFHFREPVELKNKTLLEKADLDPSLDFMDSLEHDIPKGSWSIQMERGNALVVLRSLLWPGLTFYHAPRTKNYGYVYVGTGEKNMDLPFML”, the protein production entry was “failed”.

Take “MGHHHHHHSHMAFVTRQFMRSVSSSSTASASAKKIIVKHVTVIGGGLMGAGIAQVAAATGHTVVLVDQTEDILAKSKKGIEESLRKVAKKKFAENPKAGDEFVEKTLSTIATSTDAASVVHSTDLVVEAIVENLKVKNELFKRLDKFAAEHTIFASNTSSLQITSIANATTRQDRFAGLHFFNPVPVMKLVEVIKTPMTSQKTFESLVDFSKALGKHPVSCKDTPGFIVNRLLVPYLMEAIRLYERGDASKEDIDTAMKLGAGYPMGPFELLDYVGLDTTKFIVDGWHEMDAENPLHQPSPSLNKLVAENKFGKKTGEGFYKYK”: the protein production result is listed as “not failed”.

As to “MGHHHHHHSHMAQPLACARGRSQRLVCDPKAASALPDLAPDVFVLRVRLEETGEMFRVANCRGDMTVRELKEELDLMVGIPFNLQRLQYLDEGVLMDDTTLKFHDVVPGGIISLCIWHHDGWTEL”, the protein production entry is “failed”.

For “MGHHHHHHSHMDALSPSPAIPSNTDYPGPHSFDVSFQQSSTAKSATWTYSTELKKLYCQIAKTCPIQIKVMTPPPQGAVIRAMPVYKKAEHVTEVVKRCPNHELSREFNEGQIAPPSHLIRVEGNSHAQYVEDPITGRQSVLVPYEPPQVGTEFTTVLYNFMCNSSCVGGMNRRPILIIVTLETRDGQVLGRRCFEARICACPGRDRKADEDSIRKQQVSDSTKNGDGTKRPFRQNTHGIQM”, the protein production result was “failed”.

Regarding “MGHHHHHHSHMDNHNPMKDIEVTSSPDDSIGCLSFSPPTLPGNFLIAGSWANDVRCWEVQDSGQTIPKAQQMHTGPVLDVCWSDDGSKVFTASCDKTAKMWDLSSNQAIQIAQHDAPVKTIHWIKAPNYSCVMTGSWDKTLKFWDTRSSNPMMVLQLPERCYCADVIYPMAVVATAERGLIVYQLENQPSEFRRIESPLKHQHRCVAIFKDKQNKPTGFALGSIEGRVAIHYINPPNPAKDNFTFKCHRSNGTNTSAPQDIYAVNGIAFHPVHGTLATVGSDGRFSFWDKDARTKLKTSEQLDQPISACCFNHNGNIFAYASSYDWSKGHEFYNP”, the protein production entry is recorded as “failed”.

With “MGHHHHHHSHMDSHDLQRFLSDFRDLMSWINGIRGLVSSDELAKDVTGAEALLERHQEHRTEIDARAGTFQAFEQFGQQLLAHGHYASPEIKQKLDILDQERADLEKAWVQRRMMLDQCLELQLFHRDCEQAENWMAAREAFLNTEDKGDSLDSVEALIKKHEDFDKAINVQEEKIAALQAFADQLIAAGHYAKGDISSRRNEVLDRWRRLKAQMIEKR”, the protein production result is recorded as “not failed”.

(Values after a protein production outcome set (Wang et al. 2014).)
